Measurements published in US20110262471A1 (ONCOTHERAPY SCIENCE, published 2011).

T1: human beta 2m-HLA-A2.1 (alpha 1, alpha 2)-H-2 Db (alpha 3 transmembrane cytoplasmic; HHD) monochain (human; mouse, UniProt P61769 21-119; P01899 207-362)
T1 chain (looked up): not shown


Molecular target: T1, human beta 2m-HLA-A2.1 (alpha 1, alpha …)
Test: cell-based or functional assay
With AQPDTAPLPV [RAB6KIFL-A2-10-284 peptide] the “IFN-gamma ELISPOT of CD4- spleen cells of immunized HLA-A2.1 (HHD) Tgm, in response to BM-DCs pulsed with the peptide” value (shortened to “IFN-gamma ELISPOT”) was 141 spot counts/well. With LLSDDDVVV [RAB6KIFL-A2-9-12 peptide] the “IFN-gamma ELISPOT” value was 149 spot counts/well. With CIAEQYHTV [RAB6KIFL-A2-9-809 peptide] the “IFN-gamma ELISPOT” value was 117 spot counts/well.
